Reference: patent US11752211B2, “Fatty acids and their use in conjugation to biomolecules” (NOVARTIS AG, priority 2014, dated 2023)
Positions of bridges follow the written chain, without caps; N, C: chain ends. No end group written: not given here.

How the values were obtained:
[1] = target: T1, RXFP1 (Homo sapiens, UniProt Q9HBX9); test: Serelaxin in vitro activity in presence of bovine serum albumin and human serum #2: cAMP in RXFP1-HEK293 cells; assay type: cell-based
T1 construct: expressed in transfected cells; host or cells: HEK293
T1 sequence (Q9HBX9 1-757): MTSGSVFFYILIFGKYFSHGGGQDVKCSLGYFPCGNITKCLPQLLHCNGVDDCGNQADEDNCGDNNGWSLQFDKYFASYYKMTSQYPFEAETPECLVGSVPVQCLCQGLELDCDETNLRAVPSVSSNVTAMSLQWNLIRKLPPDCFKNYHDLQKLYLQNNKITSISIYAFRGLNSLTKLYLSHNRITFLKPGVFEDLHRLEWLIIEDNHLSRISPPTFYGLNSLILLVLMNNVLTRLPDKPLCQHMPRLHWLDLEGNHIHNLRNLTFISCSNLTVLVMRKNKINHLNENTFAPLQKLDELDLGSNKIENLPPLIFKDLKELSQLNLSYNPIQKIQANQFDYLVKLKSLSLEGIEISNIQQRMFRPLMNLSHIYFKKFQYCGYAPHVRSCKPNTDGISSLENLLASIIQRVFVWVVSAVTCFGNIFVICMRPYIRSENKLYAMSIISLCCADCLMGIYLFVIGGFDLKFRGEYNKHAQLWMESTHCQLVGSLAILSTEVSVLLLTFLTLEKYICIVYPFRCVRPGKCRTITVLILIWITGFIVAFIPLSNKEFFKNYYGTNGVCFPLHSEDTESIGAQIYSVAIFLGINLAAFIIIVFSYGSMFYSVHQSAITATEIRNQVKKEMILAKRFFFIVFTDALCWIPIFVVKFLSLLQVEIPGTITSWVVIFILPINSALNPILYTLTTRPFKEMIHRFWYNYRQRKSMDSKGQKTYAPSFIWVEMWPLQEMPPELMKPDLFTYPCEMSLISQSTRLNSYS
Procedure: In Vitro Activity in Presence of Bovine Serum Albumin and Human Serum #2: Materials: DMEM: F12 media (Gibco, cat #11320) IBMX (Sigma, cat #15879) 384 solid bottom white plates (Greiner bio-one, cat #781945) 20,000 dynamic-2 cAMP kit (Cisbio, cat #62AM4PEC) Adenosine 3′, 5′-cyclic monophosphate (Sigma, cat #A9501) Matrix-plate mate plus (used for adding 5 μl of assays reagents) PBS-Gibco (cat #10010-023) 1M HEPES Gibco (cat-15630-080) 1×HBSS Gibco (cat-14175-095) Assay buffer—1×HBSS+10 mM HEPES Bovine serum albumin cat #A2153 (Sigma-Aldrich) Sigma Aldrich—H4522 (Human serum) Conditions:
10% Human Serum (Sigma aldrich—H4522)
• Serelaxin 10 ul stock dissolved in 190 ul of PBS, final concentration is 40 μM, which are diluted 3× fold by transferring 30 ul to 60 ul of the assay buffer 11 point curve, (A2-A12) 12th is zero. Serelaxin-FA conjugate: Stock is (287.79 uM) i.e 2.61 mg/ml MW is 9069 Daltons • Serelaxin 27.798 ul stock dissolved in 172.2 ul of PBS, final concentration is 40 μM, which are diluted 3× fold by transferring 30 ul to 60 ul of the assay buffer 11 point curve, (A2-A12) 12th is zero. BSA Stock Solution Preparation: For 666.66 uM BSA: Made assay buffer 30 mls by dissolving 1.32 gms of BSA For 600 uM BSA: Made assay buffer 30 ms by dissolving 1.18 gms of BSA No BSA, has only assay buffer Human Serum For 4.44% HS: 1.34 mls in 28.66 mls of assay buffer For 4% HS: 1.2 mls in 28.8 mls of assay buffer For 11.11% HS: 3.33 mls in 26.67 mls of assay buffer For 10% HS: 3 mls in 27 mls of assay buffer Procedure: Day 1: Seed 8,000 cells/well of RXFP1-HEK293 and HEK293 (parental) cells in 10 μl/well volume in basal DMEM:F12 media-on solid bottom plate. Incubate cells overnight at 37° C./5% CO2. Day 2: • 1. Wash cells 2× times with 50 ul of assay buffer and were tapped gently on paper towel to get rid of assay buffer after first and second wash • 2. Cells were pretreated with 15 ul of media with IBMX (666.66 uM) containing respective media (600 uM of BSA, 4% BSA, 10% Human serum and assay buffer alone) for 30 minutes at 37° C. • 3. Serially dilute cpds 3× times, 11 point curve—transferring 15 ul of cpds from previous well to subsequent well with 30 ul of PBS, well 11 is PBS only • 4. Dilute (1:10) in assay buffer from step 3 (i.e is 10 ul to 90 ul of assay buffer) • 5. Dilute again from step 4 (1:10) in respective media (666.66 μM of BSA &4.44% & 11.11% Human serum and assay buffer) final con of the BSA is 600 μM and Human serum is 4 & 10% • 6. (*Incubate the cpds for 1 hr at RT in their respective media, before adding to cells) • 7. […] Read FRET on Envision • 12. cAMP std curves were made in their respective media. cAMP Standard Curve Dilutions:
The initial stock of cAMP standard is 1120000 nM • 1. […] Read on HTRF—Envision Analysis: […]

[2] = target: T1, RXFP1; test: Serelaxin in vitro activity assay #1: cAMP HTRF in RXFP1-HEK293 cells; assay type: cell-based; conditions: DMEM:F12 media
Procedure: Protocol: Day 1: Seeded RXFP1-HEK293/parental HEK293 cells 8k in 10 μl of DMEM: F12 media in solid bottom PDL coated white plates Day 2: Ran assay with the compound Agonist Mode (Overview): • Cells in 10 μl of DMEM:F12 media @37° C. O/N • 5 μl of 2000 μM (4×) of IBMX to the cells for 30 min at 37° C. • 5 μl of 4× compound/Serelaxin to the above for 30 min at 37° C. […]
Read FRET signal—Envision 665 nm/620 nm […]

[3] = In vivo plasma stability of AgRP conjugates, 10 nanomoles per rat iv, AgRP ELISA; conditions: male Sprague-Dawley rats, 10 nanomoles per rat intravenously
Procedure: 10 nanomoles of conjugate was dissolved in 300 μL of PBS (Phosphate buffered saline) to form Dosing solution. Dosing solution ([…]) was administered intravenously to male Sprague-Dawley rats via lateral tail vein (corresponding to a dose 10 nanomoles per rat). Blood was collected via tail snip at prescribed times after dosing and immediately placed on wet ice. These samples were centrifuged at 4C, with supernatant plasma transferred to a fresh tube for analysis.
Standard curve preparation: The two fatty acid conjugates of examples 27A and 27B and one mature human AgRP peptide were used to make standards. Intermediate stock solutions of each AgRP were prepared by diluting the stock labeled peptides in ELISA sample diluent with casein to 100 ug/ml. For assay, intermediates were diluted to a top standard concentration of 2500 pg/mL and then diluted 2-fold serially to 16 points including a zero dose standard in ELISA sample diluent with bovine serum albumin (BSA). Sample dilution: Plasma samples were diluted 10-fold and then 5-fold serially out to 31,250-fold in ELISA sample diluent with BSA. […] Plates were washed a final time and a chemiluminescent substrate was added to all wells and plates were read immediately on a Spectramx M5 for light output. Data analysis: Raw data was organized and analyzed for basic PK parameters. […]

[4] = target: T2, MC3R (Homo sapiens, UniProt P41968); test: MC3 cAMP assay in HEK293/MC3R cells (antagonist protocol); assay type: cell-based; conditions: HEK293/MC3R stable cell line, against NDP-α-MSH EC80
T2 construct: expressed in transfected cells; host or cells: HEK293
T2 sequence (P41968 whole entry, species assumed): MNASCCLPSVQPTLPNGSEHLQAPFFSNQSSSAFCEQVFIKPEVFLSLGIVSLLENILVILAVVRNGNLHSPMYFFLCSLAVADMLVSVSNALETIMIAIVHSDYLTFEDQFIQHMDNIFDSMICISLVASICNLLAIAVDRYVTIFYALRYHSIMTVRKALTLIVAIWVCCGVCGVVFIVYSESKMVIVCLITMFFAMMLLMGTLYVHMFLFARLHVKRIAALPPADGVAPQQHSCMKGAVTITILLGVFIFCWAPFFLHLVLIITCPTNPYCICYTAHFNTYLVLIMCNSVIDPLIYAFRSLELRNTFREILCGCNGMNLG
Procedure: Cells: HEK293/MC3R stable cell line
• I. Aspirate conditioned medium • II. Wash with 2.5 mL of DPBS (Gibco, Cat. No. 14190) • III. Add 2 mL of 0.25% Trypsin-EDTA (Gibco, Cat. No. 25200-056) • IV. Leave the flask for few minutes in incubator, tap the flask a few time to detach cells. • V. Add 10 mL of the complete medium to stop Trypsin-EDTA treatment and mix it well by pipetting softly a few times to re-suspend clumping cells • VI. Transfer 1.5 ml of cells into a new 150 cm flask containing 20 ml of complete media • VII. Transfer the remaining suspension into a 50 mL centrifuge tube • VIII. Spin down at 1200 rpm for 4 mins. Aspirate supernatant • IX. Add 6 mL of the assay buffer to the tube and re-suspend the cells by softly pipetting • X. Transfer 0.5 mL of the suspension into a sample vial for Vi-cell and add another 0.5 ml of PBS. • XI. Count cell number by using a Vi-cell *Record cell density and viability every time • i. Plate cells at 4K/well in 10 ul/well of assay buffer containing IBMX. • ii. Leave the plate in incubator for ˜30 mins before assay is started on suspension cells.
Two step cAMP protocol is followed for cAMP determination.
• I. To 10 ul/well of cells add 5 ul of AgRP prepared at 3× in assay buffer only to antagonist wells. • II. Add 5 ul of buffer to positive control wells (wells that will have NDP-α-MSH). • III. Incubate the plate at 37° C. for ˜20 mins. • IV. […]

[5] = test system: high fat diet-induced obese (DIO) mice; test: Glucose-stimulated insulin secretion (GSIS) assay; assay type: in vivo; conditions: single IV dose 45 min before oral glucose 3 g/kg
Procedure: GSIS test was performed as a measurement of in vivo pancreatic beta cell function following recombinant human Prolactin-inducible Protein (hPIP) in high fat diet-induced obese (DIO) mice. Briefly, mice (m=5-7/group) were fasted overnight (5:00 PM-8:00 AM) and on the test day body weight and blood glucose (BG; determined with Embrace glucose meters) which was designated as baseline timepoint. Next, mice were administered with hPIP (native and FA-conjugated PIP; solution in PBS; administered at 4 ml/kg body weight) or a vehicle-control (PBS) once intravenuously (IV). Forty-five min following the hPIP administration, all mice were dosed with oral glucose (3 g/kg dextrose; solution in PBS; administered at 4 ml/kg body weight). Blood glucose was measured immediately before the glucose load (designated as 0 min time point) and at 15 and 30 min post-glucose. Blood samples were collected for plasma isolation and measurement of plasma insulin were carried out at 0, 15 and 30 min post-glucose.

[6] = Pharmacokinetics (PK) assay of hPIP, single IV administration; assay type: in vivo; conditions: DIO mice
Procedure: Plasma exposure of hPIP were measured in DIO mice following a single IV administration. Briefly, freely-fed DIO mice (n=2) were administered with hPIP (native and FA-conjugated PIP; solution in PBS; administered at 4 ml/kg body weight) once intravenuously (IV). Blood samples were collected and plasma isolated at 0.25, 0.5, 1, 3, 7, 24 and 48 hrs post-dose by and in-house ELISA assay (protocol shown below).

Serelaxin: Recombinant 1-chain human relaxin (DSWMEEVIKLCGRELVRAQIAICGMSTWSCFRALSRKTCGVHCCKNALASYLE; Serelaxin Sequence)
EC50 ([1]; 0% Plasma): 8 nM
EC50 ([1]; 4% Plasma): 0.3 nM
EC50 ([1]; 10% Plasma): 0.4 nM
EC50 ([1]; 600 uL BSA): 0.7 nM
EC50 [2]: 1.12 nM

AgRP: mature human AgRP peptide (SSRRCVRLHESCLGQQVPCCDPCATCYCRFFNAFCYCRKLGTAMNPCSRT; disulfide 12-26, 19-37, 5-20, 23-47, 28-35)
In vivo Plasma stability t½ [3]: 4.4 h
EC50 [4]: 12 nM

B1: Unconjugated PIP: recombinant human Prolactin-inducible Protein (hPIP), native (protein, UniProt P12273 29-146, looked up)
Prolactin-inducible protein: QDNTRKIIIKNFDIPKSVRPNDEVTAVLAVQTELKECMVVKTYLISSIPLQGAFNYKYTACLCDDNPKTFYWDFYTNRTVQIAAVVDVIRELGICPDDAAVIPIKNNRFYTIEILKVE
Plasma Insulin AUCB (ng/mL*min) compared to the vehicle [5]: +29%
Cmax [6]: 220 nM
MRT [6]: 12.0 h
